# Data taken from publication PMC6917645.
# Biological target: Viperin-Flag (UniProt Q8WXG1)
# Chain of UniProt Q8WXG1 (Q8WXG1 whole entry): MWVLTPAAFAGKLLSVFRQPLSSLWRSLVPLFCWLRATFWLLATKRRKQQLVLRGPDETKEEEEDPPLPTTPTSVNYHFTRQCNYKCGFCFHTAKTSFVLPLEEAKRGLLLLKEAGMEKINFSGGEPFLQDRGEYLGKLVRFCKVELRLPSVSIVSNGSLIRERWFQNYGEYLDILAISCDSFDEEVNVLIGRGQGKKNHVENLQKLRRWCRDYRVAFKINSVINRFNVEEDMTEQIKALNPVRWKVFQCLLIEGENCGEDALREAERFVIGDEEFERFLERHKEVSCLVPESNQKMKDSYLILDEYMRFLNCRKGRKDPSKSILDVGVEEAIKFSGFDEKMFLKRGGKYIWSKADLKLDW
substance,measurement,value
gD-EYFP (from UniProt Q69091 26-394) (natural protein),IRF7/6D-induced IFN-β promoter luciferase activity in HEK293T; gD-EYFP and Viperin-Flag together against gD or viperin alone,2 fold
